Data from article PMC3025356, “Mechanism of the Ca^2+-Dependent Interaction between S100A4 and Tail Fragments of Nonmuscle Myosin Heavy Chain IIA” (Journal of Molecular Biology, 2011).

Tested on: M200 filaments
Test: Stopped-flow turbidity, dissociation of M200 filaments on NaCl jump or dilution
Assay type: biochemical, human
Experimental: Fig. 9 Dissociation of M200 filaments by S100A4. (a) Initially, M200 was added (i) from a concentrated stock in 0.5 M NaCl to give a final concentration of 5 μM M200 (with respect to the polypeptide chain) in 100 mM NaCl, 10 mM Hepes, and 0.1 mM Ca^2+ at pH 7.5 and 20 °C. A biphasic rise in turbidity was recorded for 200 s (continuous line). Then 10 μM S100A4 (with respect to monomer concentration) was added (ii), followed by 0.2 mM EGTA (iii) and 1 mM Ca^2+ (iv). […] (b) M200 was diluted (i) into 100 mM NaCl to form filaments as in (a), then 5 μM S100A4 was added (ii), causing a 54% drop in turbidity. A further 5 μM S100A4 (iii) caused turbidity to fall to almost zero. (c) Stopped-flow records monitoring the dissociation of 5 μM M200 filaments on jumping [NaCl] from 100 mM to 120 mM NaCl. Other components of the buffer were 20 mM Hepes, 1 mM Mg^2+, and 100 μM Ca^2+ at pH 7.5 and 20 °C. […] In the presence of 20 μM S100A4 (lower trace), the turbidity decreased by 87% with a rate constant of 0.2 s^− 1.
It is of interest to know whether S100A4 drives depolymerisation solely by binding to free M monomer and allowing the polymer equilibrium to readjust (i.e., via k− 4 and k5), or whether S100A4 also binds to the filament bundle and actively depolymerises an M200 unit (via k6 and k− 7). […] In an attempt to address this question, the dissociation rate of the M200 filament was followed on jumping the NaCl concentration from 100 mM to 120 mM in the absence and in the presence of S100A4 (Fig. 9c). Under these conditions in the absence of S100A4, turbidity dropped to about 50% of its initial value with a profile fitted to a double exponential (k1obs = 0.33 s^− 1 with 12% amplitude and k2obs = 0.037 s^− 1 with 43% amplitude, relative to the total amplitude expected for a full dissociation). Therefore, at the end point of this reaction, the filament concentration decreased by about 2-fold (turbidity is proportional to concentration over this range; Fig. S5b). There should also be a corresponding rise in M200 monomer concentration, but this may be less than accounted for by the loss of filaments if the drop in turbidity was also associated with a rise in small M200 oligomers with a lower specific turbidity. […]

Substance: S100A4: recombinant S100A4 expressed in E. coli BL21(DE3)
- decrease in turbidity on NaCl jump (20 μM S100A4, 5 μM M200, 100 to 120 mM NaCl): 87%
- initial rate relative to absence of S100A4 (20 μM S100A4, NaCl jump): five times faster than in the absence of S100A4
- kobs, biphasic fit (20 μM S100A4, NaCl jump): 0.21 s^− 1
- rate constant (single exponential) (20 μM S100A4, NaCl jump): 0.19 s^− 1
